From patent US20170035903A1 (GAMAMABS PHARMA, published 2017)
Where a chain is given by its changes, count along the chain named. Names may count otherwise.

B1: murine 12G4 antibody (antibody, from another filing, V domains shown)
VH: QVQLQQSGPELVKPGASVRMSCKASGYTFTSYHIHWVKQRPGQGLEWIGWIYPGDDSTKYNEKFKGKTTLTADKSSSTAYMLLSSLTSEDSAIYFCTRGDRFAYWGQGTLVTVSA
VL: QIVLTQSPAIMSASLGEGITLTCSASSSVRYIHWYQQKSGTSPKLLIYSTSNLASGVPSRFSGSGSGTFHSLTISSVEAEDAADYYCLQWSSYPWTFGGGTKLEIK
B2: humanized low fucose 3C23K antibody (antibody, human IgG1, kappa, V domains shown)
VH: QVRLVQSGAEVKKPGASVKVSCKASGYTFTSYHIHWVRQAPGQRLEWMGWIYPGDDSTKYSQKFQGRVTITRDTSASTAYMELSSLRSEDTAVYYCTRGDRFAYWGQGTLVTVSS
VL: DIQMTQSPSTLSASVGDRVTITCRASSSVRYIAWYQQKPGKAPKLLTYPTSSLKSGVPSRFSGSGSGTEFTLTISSLQPDDFATYYCLQWSSYPWTFGGGTKVEIKR
notes: Humanized from murine 12G4, low fucose, prepared as in WO2011/141653A1; also called unconjugated 3C23K; 3C23K unconjugated; copies: 2 + 2
B3: K4D-24 (antibody, V domains shown)
VH: B2 VH with Q1R
VL: DIQMTQSPSTLSASVGDRVTITCRASSSVRYIAWYQQKPGKAPKLLTYPTSSLKSGVPSRFSGSGSGTEFTLTISSLQPDDFATYYCLQWSSYPWTFGGGTKVEIK
notes: Variant of 3C23K with H-Q1R (Kabat)
B4: 6C59 (antibody, V domains shown)
VH: B2 VH with Q1R
VL: B3 VL with S27P, S28P
notes: Variant of 3C23K with H-Q1R, L-S27P and L-S28P (Kabat)

How the values were obtained:
[1] = molecular target: T1, AMHR-II-ECD-Fc (R&D System) (human, UniProt Q16671 18-149); assay: SPR (Bia3000), AMHR-II-ECD-Fc immobilised on CM5, antibody injected, Langmuir 1:1 fit
T1 construct: Bought construct; also called recombinant AMHR-II; AMHR-II recombinant protein; not shown: Fc part of the bought AMHR-II-ECD-Fc (R&D System)
Protocol: (§1) Immobilization of AMHRII was performed on a Bia3000 apparatus at 25° C. in HBS-EP (HEPES 10 mM, NaCl 150 mM, EDTA 3 mM, P20 surfactant 0.005%) at […] flow rate on CM5 sensor chip using EDC/NHS (1-Ethyl-3-3-dimethylaminopropyl carbodiimidehydrochloride) activation according to the manufacturer's instructions (GEHealthcare). Briefly, carboxyl functions of CM5 sensor chip were activated with 0.4M EDC/0.1M NHS during 7 min. A solution of AMHR-II-ECD-Fc (R&D System) at 2.5 μg/ml in sodium acetate buffer was injected during 12 min. An injection of 1M ethanolamine hydrochloride was used to neutralize the activation. […] A control reference surface was prepared using the same chemical treatment of without injection of AMHRII.
(§2) Antibodies at different concentrations (from 0.5 nM to 133 nM) were injected during 180s on AMHRII-coated flowcell and the control flowcell. After a dissociation step of 400s in running buffer, sensor surfaces were regenerated using 5 μl of Glycine-HCl pH1.7. All the sensorgrams were corrected by subtracting the low signal from the control reference surface. Kinetic parameters were evaluated from the sensorgrams using a Langmuir 1:1 fitting model on the BiaEvaluation 4.2 software.

[2] = molecular target: T2, human anti-Müllerian hormone type II receptor (AMHR-II) on COV434 cells (human, UniProt Q16671 18-573); assay: flow cytometry on COV434 AMHR-II transfected cells, Hill slope fit
T2 construct: Receptor at the surface of the COV434 AMHR-II transfected line (about 20000 receptors) or the COV434 WT line (about 2000 receptors); also called AMHR2; AMHR-II surface receptor
T2 sequence: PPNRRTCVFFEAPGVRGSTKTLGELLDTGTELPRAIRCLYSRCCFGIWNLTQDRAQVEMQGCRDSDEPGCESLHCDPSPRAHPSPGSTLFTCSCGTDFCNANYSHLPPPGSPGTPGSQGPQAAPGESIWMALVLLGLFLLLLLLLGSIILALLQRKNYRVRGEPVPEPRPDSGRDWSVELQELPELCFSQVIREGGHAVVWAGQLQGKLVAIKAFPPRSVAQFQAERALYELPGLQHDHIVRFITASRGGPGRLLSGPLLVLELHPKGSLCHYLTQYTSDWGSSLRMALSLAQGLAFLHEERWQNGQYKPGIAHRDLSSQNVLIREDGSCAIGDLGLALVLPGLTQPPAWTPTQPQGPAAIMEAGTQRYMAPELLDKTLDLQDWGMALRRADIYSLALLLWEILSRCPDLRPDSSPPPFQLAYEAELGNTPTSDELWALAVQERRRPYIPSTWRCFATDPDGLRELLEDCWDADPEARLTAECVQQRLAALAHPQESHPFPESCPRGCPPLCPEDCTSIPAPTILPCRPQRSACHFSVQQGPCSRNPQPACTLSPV
Protocol: (§3) Binding was determined by FACS analysis in the range of concentrations 0.034 to 8 μg/ml. Binding data curves were analyzed used specific binding with Hill slope equation from GraphPad Prism.
(§4) The COV434 AMHR-II transfected and the COV434 WT cell lines were maintained in DMEM/GlutaMax (Gibco) supplemented with 10% FBS, penicillin 100 U/ml and Streptomycin 100 μg/ml. Geneticin at 666 μg/ml was added for the COV434 AMHR-II transfected cell line. […] After washes, Phycoerythrin-conjugated anti-human IgG antibody (1:200, Beckman-Coulter) was added for 1 hour at room temperature. FACS analysis of the resuspended cells was done on a BD Accuri™ C6 flow cytometer (BD Bioscience).
(§5) FACS analysis with COV434-AMHR-II transfected cell line is described in FIG. 16. […] The binding capacity of these variants was also assayed on the low expressing AMHR-II COV434 WT cell line.

[3] = molecular target: T2, human anti-Müllerian hormone type II …; assay: flow cytometry on COV434 WT cells, antibody at 10 µg/ml
Protocol: B) FACS histogram profiles of COV434WT staining at 10 μg/ml of antibodies. C) Percentage of COV434 WT cell staining with the antibodies.
as §4, §5

[4] = molecular target: T1, AMHR-II-ECD-Fc (R&D System); assay: ELISA, 50 ng per well AMHR-II-ECD-Fc coated, HRP anti-human F(ab')2 detection
Protocol: ELISA plates (96 wells, Maxisorp, NUnc) were coated overnight at +4° C. with 50 ng per well of AMHR-II-ECD-Fc (R&D System). Coated ELISA plates were blocked with PBS-BSA 4% for 2 hours at 37° C. and washed three times with PBS-Tween20 0.05%. […] The bound anti-AMHR-II antibodies were detected by adding HRP-conjugated F(ab′)2 goat anti-human F(ab′2) fragment specific (Interchim) diluted at 1:10000 and incubated for one hour at 37° C. Revelation was done with TMB (Sigma) and the reaction was stopped by adding H2SO4 1N (v:v). Absorbances were measured at 450 nm and binding data curves were analysis using GraphPad Prism.

[5] = molecular target: T1, AMHR-II-ECD-Fc (R&D System); assay: SPR (Bia3000), AMHR-II-ECD-Fc immobilised; against parental murine 12G4
Protocol: as §1, §2

[6] = molecular target: T2, human anti-Müllerian hormone type II …; assay: flow cytometry on COV434 AMHR2 transfected cells, 0.034 to 8 µg/ml
Protocol: as §3, §4, §5

[7] = molecular target: T2, human anti-Müllerian hormone type II …; assay: flow cytometry on COV434 AMHR-II transfected cells
Protocol: as §3, §4, §5

| Binder | Ka [1] [M⁻¹] | Kd [1] [pM] | koff [1] [s⁻¹] | kon [1] [M⁻¹ s⁻¹] | Kapparent [2] [µg/mL] | percent of COV434 WT cells stained [3] [%] | EC50 [4] [pM] | fold higher association rate against 12G4 [5] [fold] | fold lower dissociation rate against 12G4 [5] [fold] | fold affinity improvement against 3C23K [6] [fold] | fold improvement of Kapparent against 3C23K [7] [fold] |
| --- | --- | --- | --- | --- | --- | --- | --- | --- | --- | --- | --- |
| B1 | 1.27e+09 | 788 | 2.28e-05 | 28900 | – | – | – | – | – | – | – |
| B2 | 1.81e+10 | 55.3 | 6.93e-06 | 125000 | 2.2 | 9.8 | 18 | 5 | 3 | – | – |
| B3 | – | – | – | – | 0.098 | 76.8 | – | – | – | 22 | 20 |
| B4 | – | – | – | – | 0.05 | 82.2 | – | – | – | – | 40 |
